# Tests used:
# [1] = biological target: cTnI (cardiac troponin I) (UniProt P19429 2-210); assay: graphene field-effect transistor (GFET) aptasensor; cTnI 3.5 ng/mL; no significant response; PBS (137 mM NaCl, 2.7 mM KCl, 10 mM phosphate) used for immobilization and blank; sensing buffer dilution, pH and temperature not given in material; aptamer on; conditions: protein: commercial
# [2] = biological target: NT-proBNP (UniProt P16860 27-102); assay: graphene field-effect transistor (GFET) aptasensor; LOD 0.01 pg/mL, range 0.1-10^4 pg/mL; Langmuir KD calculated but value not in material; PBS (137 mM NaCl, 2.7 mM KCl, 10 mM phosphate) used for immobilization and blank; sensing buffer dilution, pH and temperature not given in material; aptamer on; conditions: protein: commercial
# NT-proBNP, sequence (P16860 27-102): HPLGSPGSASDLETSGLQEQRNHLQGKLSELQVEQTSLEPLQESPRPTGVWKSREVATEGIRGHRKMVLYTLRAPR
# cTnI (cardiac troponin I), sequence (P19429 2-210): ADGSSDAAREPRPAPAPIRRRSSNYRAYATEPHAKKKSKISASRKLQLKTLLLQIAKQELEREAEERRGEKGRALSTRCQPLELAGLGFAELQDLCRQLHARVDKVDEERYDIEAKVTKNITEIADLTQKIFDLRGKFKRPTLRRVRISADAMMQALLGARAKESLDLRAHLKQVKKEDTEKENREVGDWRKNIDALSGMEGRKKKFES
binder,measurement,setting,value
"azide-modified NT-proBNP aptamer (N20a in Fig. S3 legend) (ssDNA, 5'-NH2; 3'-azide (N3), photochemically coupled to graphene) DNA: GGCAGGAAGACAAACAGGTCGTAGTGGAAACTGTCCACCGTAGACCGGTTATCTAGTGGTCTGTGGTGCTGT",binding result,[1],no binding
same,binding result,[2],binds

# From paper PMC9775241, “One-Step Photochemical Immobilization of Aptamer on Graphene for Label-Free Detection of NT-proBNP”
